Marks after values point to notes of the source that are not given here.
What was measured:
[1] = test system: NCI-H146 (human small cell lung cancer) xenograft; assay: NCI-H146 xenograft tumor growth inhibition; assay type: in vivo, SCID-bg mice; settings: for Growth Inhibition TGImax (%): 10 mg/kg/day IP QDx1; for Response Frequency CR (%): 10 mg/kg/day IP QDx1, complete responders; for Response Frequency OR (%): 10 mg/kg/day IP QDx1, overall responders; for Response Frequency PR (%): 10 mg/kg/day IP QDx1, partial responders; for Growth Inhibition TGD (%): 10 mg/kg/day IP QDx1, tumor growth delay to 1 cm^3
Protocol: The in vivo efficacy of anti-CD98 hybridoma mAb conjugates were tested using Ab3-CZ and Ab5-CZ as examples in NCI-H146 (human small cell lung cancer) xenograft model. The two anti-CD98 hybridoma mAb, Ab3-CZ and Ab5-CZ, were conjugated to the Bcl-xL inhibitor synthon CZ according to Method A. NCI-H146 was obtained from the American Type Culture Collection (ATCC, Manassas, Va.). The cells were cultured as monolayers in RPMI-1640 culture media (Invitrogen, Carlsbad, Calif.) that was supplemented with 10% Fetal Bovine Serum (FBS, Hyclone, Logan, Utah). To generate xenografts, 5×10^6 (NCI-H146) viable cells were inoculated subcutaneously into the right flank of immune deficient female SCID-bg mice (Charles River Laboratories, Wilmington, Mass.). The injection volume was 0.2 mL and composed of Matrigel (BD, Franklin Lakes, N.J.). Tumors were size matched at approximately 212 mm^3. Antibodies and conjugates were formulated in phosphate buffered saline, pH 7.2 and injected intraperitoneally. […] Therapy began within 24 hours after size matching of the tumors. Mice weighed approximately 21 g at the onset of therapy. Tumor volume was estimated two to three times weekly. Measurements of the length (L) and width (W) of the tumor were taken via electronic caliper and the volume was calculated according to the following equation: V=L×W^2/2. Mice were euthanized when tumor volume reached 3,000 mm^3 or skin ulcerations occurred. Eight mice were housed per cage. Food and water were available ad libitum. Mice were acclimated to the animal facilities for a period of at least one week prior to commencement of experiments. Animals were tested in the light phase of a 12-hour light: 12-hour dark schedule (lights on at 06:00 hours). Anti-CD98 conjugates (10 mg/kg) were administered as a single dose (QD×1) intraperitoneally. A human IgG control antibody (MSL109, a humanized IgG1 antibody that binds to cytomegalovirus (CMV) glycoprotein H) was used as a negative control agent.
To refer to efficacy of therapeutic agents, parameters of amplitude (TGImax), durability (TGD) and response frequency (CR, PR, OR) of therapeutic response are used. The efficacy of inhibition of NCI-H146 xenografts growth with CD98-targeted ADCs is illustrated by Table 6, below. In the tables, to refer to efficacy, parameters of amplitude (TGImax) and durability (TGD) of therapeutic response are used. TGImax is the maximum tumor growth inhibition during the experiment. Tumor growth inhibition is calculated by 100*(1−Tv/Cv) where Tv and Cv are the mean tumor volumes of the treated and control groups, respectively. TGD or tumor growth delay is the extended time of a treated tumor needed to reach a volume of 1 cm^3 relative to the control group. TGD is calculated by 100*(Tt/Ct−1) where Tt and Cr are the median time periods to reach 1 cm^3 of the treated and control groups, respectively. Distribution of the response amplitude in a specific group is given by the frequency of complete responders (CR), partial responders (PR), and overall responders (OR). CR is the percentage of mice within a group with a tumor burden of 25 mm^3 for at least three measurements. PR is the percentage of mice within a group with a tumor burden larger than 25 mm^3 but less than one-half of the volume at onset of treatment for at least three measurements. OR is the sum of CR and PR.

[2] = test system: EBC-1 (human lung squamous cell carcinoma) xenograft; assay: EBC-1 xenograft tumor growth inhibition; assay type: in vivo; settings: 10 mg/kg/day IP QDx1, SCID-bg mice
[3] = Percent aggregates of ADC by size exclusion chromatography; assay type: physicochemical; settings: chAb3-CZ DAR2, DAR4 and broad DAR species (Table 12)
Excerpt: Procedures for DAR and percent aggregate determination are described above in Example 5.

Molecule | Growth Inhibition TGImax (%) [1] | Response Frequency CR (%) [1] [%] | Response Frequency OR (%) [1] [%] | Response Frequency PR (%) [1] [%] | Growth Inhibition TGD (%) [1] | Growth Inhibition TGD (%) [2] | Growth Inhibition TGImax (%) [2] | Response Frequency CR (%) [2] [%] | Response Frequency OR (%) [2] [%] | Response Frequency PR (%) [2] [%] | % Aggregates by SEC [3] [%]
MSL109: "a humanized IgG1 antibody that binds to cytomegalovirus (CMV) glycoprotein H", "used as a negative control agent" [reference compound] | 0% | 0 | 0 | 0 | 0% |  |  |  |  |  | 
ChAb11-CZ (conjugate) VH: EVQLVESGGGLVQPGRSLKLSCAASGFTFSDYAMAWVRQAPKKGLEWVAGIIYDGRGTYYRDSVKGRFTISRDNAKSTLYLQMDSLRSEDTATYYCARQGDGTYYYWGYFDYWGQGVMVTVSS VL: DIVMTQSPSSLAVSAGETVTINCRSSQSLLSSGNQKNYLAWYQQKPGQSPKLLIYWASTRQSGVPDRFIGSGSGTDFTLTISSVQAEDLAIYYCQQYYDTPYTFGAGTKLELK |  |  |  |  |  | 37* % | 55* % | 0 | 0 | 0 | 
ChAb15-CZ (conjugate) VH: EVQLVESGGGLVQPGRSLKLSCAASGFTFSDYTMAWVRQAPKKGLEWVATIIYDGRGTYYRDSVKGRFTISRDNAKSTLYLQMDSLRSEDTATYYCARQSDGTYYYWGYFDYWGQGVMVTVSS VL: DIVMTQSPSSLAVSAGETVTINCKSSQSLLFSGNQKNYLAWYQQKPGQSPKLLIYWASTRQSGVPDRFIGSGSGTDFTLTIRSVQAEDLAIYYCQQYYDSPYTFGAGTKLELK |  |  |  |  |  | 74* % | 70* % | 0 | 0 | 0 | 
ChAb8-CZ (conjugate) VH: EVQLVESGGGLVQPGRSLKLSCAASGFTFSDYAMAWVRQAPKKGLEWVASIIYDGRGTYYRDSVKGRFTISRDNAKSTLYLQMDSLRSEDTATYYCARQGDGTYYYWGYFDYWGQGVMVTVSS VL: DIVMTQSPSSLAVSAGETVTINCKSSQSLLSSGNQKNYLAWYQQKPGQSPKLLIYWASTRQSGVPDRFIGSGSGTDFTLTINSVQAEDLAIYYCQQYYDTPYTFGAGTKLELK |  |  |  |  |  | 42* % | 56* % | 0 | 0 | 0 | 
ChAb12-CZ (conjugate) VH: EVQLVESGGGLVQPGRSLKLSCAASGFTFSDYAMAWVRQAPKKGLEWVASIIYDGRGTYYRDSVKGRFTISRDNAKSTLYLQMDSLRSEDTATYYCARQGDGTYYYWGSFDYWGQGVMVTVSS VL: DIVMTQSPSSLAVSAGETVTINCKSSQSLLSSGNQKNYLAWYQQKPGQSPKLLIYWASTRQSGVPDRFIGSGSGTDFTLTISSVQAEDLAIYHCQQYYDTPYTFGAGTKLELK |  |  |  |  |  | 74* % | 76* % | 0 | 25 | 25 | 
ChAb13-CZ (conjugate) VH: QVQLKESGPGLVQPSQTLSLTCTVSGFSLSSYGVIWVRQPPGKGLEWMGIIWANGNTNYNSALKSRLSISRDTSKSQVYLKMNSLQTEDTATYYCARHYYDGTHYYGYFDYWGQGVMVTVSS VL: DTVMTQTPSSQAVSAGEKVTMSCKSSQSLLYSENKKKYLAWYQQKPGQSPKLLIYWASTRESGVPDRFIGSGSGTDFTLTISSVQAEDLAVYYCQQYYNFPYTFGAGTKLELK |  |  |  |  |  | 47* % | 61* % | 0 | 0 | 0 | 
Ab3-CZ (conjugate) VH: EVKLVESGGGLVQPGNSLRLSCATSGFTFIDYYMSWVRQSPGKALEWLGFIRNKANGYTTEYSASVKGRFTISRDNSQSILYLQMDTLRAEDSATYYCTRDRPAWFVYWGQGTLVTVSA VL: DIVMSQSPSSLAVSVGEKVTMSCKSSQSLLYSSNQKNYLAWYQQKPGQSPKLLIYWASTRESGVPDRFTGSGSGTDFTLTFSSVRAEDLAVYYCQQYYSYPYTFGGGTKLEIK | 79* % | 0 | 50 | 50 | 81* % |  |  |  |  |  | 
ChAb3- CZ-DAR4 (conjugate) VH: EVKLVESGGGLVQPGNSLRLSCATSGFTFIDYYMSWVRQSPGKALEWLGFIRNKANGYTTEYSASVKGRFTISRDNSQSILYLQMDTLRAEDSATYYCTRDRPAWFVYWGQGTLVTVSA VL: DIVMSQSPSSLAVSVGEKVTMSCKSSQSLLYSSNQKNYLAWYQQKPGQSPKLLIYWASTRESGVPDRFTGSGSGTDFTLTFSSVRAEDLAVYYCQQYYSYPYTFGGGTKLEIK |  |  |  |  |  |  |  |  |  |  | 13.8
ChAb3-CZ (conjugate) VH: EVKLVESGGGLVQPGNSLRLSCATSGFTFIDYYMSWVRQSPGKALEWLGFIRNKANGYTTEYSASVKGRFTISRDNSQSILYLQMDTLRAEDSATYYCTRDRPAWFVYWGQGTLVTVSA VL: DIVMSQSPSSLAVSVGEKVTMSCKSSQSLLYSSNQKNYLAWYQQKPGQSPKLLIYWASTRESGVPDRFTGSGSGTDFTLTFSSVRAEDLAVYYCQQYYSYPYTFGGGTKLEIK |  |  |  |  |  | 37* % | 54* % | 0 | 0 | 0 | 
ChAb5-CZ (conjugate) VH: EVKLVESGGGLVQPGGSLRLSCATSGFTFTDYYMTWVRQPPGKALEWLGFIRNKANGYTTEYSASVKGRFTISRDNSLSILYLQMNTLRAEDSATYYCARASYVNSEGWFAYWGQGTLVTVSA VL: DIVMSQSPSSLAVSVGEKVTMSCKSSQSLLYSSNQKNYLAWYQQKLGQSPKLLIYWASTRESGVPDRFTGSGSGTDFTLTISSVKAEDLAVYYCQHYYSYPRTFGGGTKLEIK |  |  |  |  |  | 61* % | 70* % | 0 | 0 | 0 | 
Ab5-CZ (conjugate) VH: EVKLVESGGGLVQPGGSLRLSCATSGFTFTDYYMTWVRQPPGKALEWLGFIRNKANGYTTEYSASVKGRFTISRDNSLSILYLQMNTLRAEDSATYYCARASYVNSEGWFAYWGQGTLVTVSA VL: DIVMSQSPSSLAVSVGEKVTMSCKSSQSLLYSSNQKNYLAWYQQKLGQSPKLLIYWASTRESGVPDRFTGSGSGTDFTLTISSVKAEDLAVYYCQHYYSYPRTFGGGTKLEIK | 76* % | 0 | 0 | 0 | 76* % |  |  |  |  |  | 

From US20230135723A1, “ANTI-CD98 ANTIBODIES AND ANTIBODY DRUG CONJUGATES” (AbbVie Inc., priority 2016, published 2023)
